The values that follow come from PMC7641746 (Nucleic Acids Research, 2020).

The target in one series is VDR;RXRα ΔNTD (Homo sapiens;Homo sapiens, UniProt P11473;P19793 1-427;130-462, |). In words: ITC.
Series [1] addresses VDR;RXRα ΔNTD;MED1 (50-660) (Homo sapiens;Homo sapiens;Homo sapiens, UniProt P11473;P19793;Q15648 1-427;130-462;50-660, ||). The series can be described thus: SEC-MALLS.
The next series deals with MED1 (50–660) (human, UniProt Q15648 50-660). The series can be described thus: HDX-MS.
Chain of MED1 (50–660) (Q15648 50-660): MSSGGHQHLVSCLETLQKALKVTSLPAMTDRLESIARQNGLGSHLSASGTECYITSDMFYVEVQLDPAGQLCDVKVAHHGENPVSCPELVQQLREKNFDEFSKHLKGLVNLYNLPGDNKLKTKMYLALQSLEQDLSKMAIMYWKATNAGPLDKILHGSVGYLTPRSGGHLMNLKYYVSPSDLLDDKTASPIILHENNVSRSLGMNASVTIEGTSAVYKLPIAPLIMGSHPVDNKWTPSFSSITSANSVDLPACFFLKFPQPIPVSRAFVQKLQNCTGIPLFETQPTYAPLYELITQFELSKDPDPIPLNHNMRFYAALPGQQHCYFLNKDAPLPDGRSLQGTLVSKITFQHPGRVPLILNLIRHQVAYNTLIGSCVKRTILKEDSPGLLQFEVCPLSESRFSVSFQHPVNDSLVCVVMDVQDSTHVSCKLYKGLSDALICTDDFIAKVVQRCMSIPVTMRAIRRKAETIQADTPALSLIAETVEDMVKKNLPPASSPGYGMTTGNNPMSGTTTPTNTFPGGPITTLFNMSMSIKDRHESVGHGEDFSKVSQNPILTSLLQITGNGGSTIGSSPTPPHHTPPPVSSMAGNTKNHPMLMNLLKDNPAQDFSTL

Chain of VDR;RXRα ΔNTD;MED1 (50-660) (Q15648 50-660, stated change not applied, one chain of several): as the sequence (Q15648 50-660) above

B1: rat Nppa (rANF1) DR3 VDRE (dsDNA)
DNA 1: AGAGGTCATGAAGGACATT
DNA 2: AATGTCCTTCATGACCTCT
As for B1, the binding result (in the series with VDR;RXRα ΔNTD; in series [1]) was “binds” each time.

B2: HsRXRαΔNTD (130–462) (receptor)
chain: FTKHICAICGDRSSGKHYGVYSCEGCKGFFKRTVRKDLTYTCRDNKDCLIDKRQRNRCQYCRYQKCLAMGMKREAVQEERQRGKDRNENEVESTSSANEDMPVERILEAELAVEPKTETYVEANMGLNPSSPNDPVTNICQAADKQLFTLVEWAKRIPHFSELPLDDQVILLRAGWNELLIASFSHRSIAVKDGILLATGLHVHRNSAHSAGVGAIFDRVLTELVSKMRDMQMDKTELGCLRAIVLFNPDSKGLSNPAEVEALREKVYASLEAYCKHKYPEQPGRFAKLLLRLPALRSIGLKCLEHLFFFKLIGDTPIDTFLMEMLEAPHQMT
Turning to B2, the binding result with MED1 (50–660) is given as “binds”.

B3: full-length HsVDR (1–427) (receptor)
chain: MEAMAASTSLPDPGDFDRNVPRICGVCGDRATGFHFNAMTCEGCKGFFRRSMKRKALFTCPFNGDCRITKDNRRHCQACRLKRCVDIGMMKEFILTDEEVQRKREMILKRKEEEALKDSLRPKLSEEQQRIIAILLDAHHKTYDPTYSDFCQFRPPVRVNDGGGSHPSRPNSRHTPSFSGDSSSSCSDHCITSSDMMDSSSFSNLDLSEEDSDDPSVTLELSQLSMLPHLADLVSYSIQKVIGFAKMIPGFRDLTSEDQIVLLKSSAIEVIMLRSNESFTMDDMSWTCGNQDYKYRVSDVTKAGHSLELIEPLIKFQVGLKKLNLHEEEHVLLMAICIVSPDRPGVQDAALIEAIQDRLSNTLQTYIRCRHPPPGSHLLYAKMIQKLADLRSLNEEHSKQYRCLSFQPECSMKLTPLVLEVFGNEIS
Regarding B3, the binding result with MED1 (50–660) is on record as “binds”.
